Assay results reported in US20180194839A1 (Novartis, published 2018).
Changes are numbered by the printed parent chain. Names and notes keep the numbering of the source.

T1: human IL-17A (construct not stated) (human, UniProt Q16552 24-155, limits assumed)
T1 construct: also called huIL-17A; human IL-17A biotin
T1 sequence: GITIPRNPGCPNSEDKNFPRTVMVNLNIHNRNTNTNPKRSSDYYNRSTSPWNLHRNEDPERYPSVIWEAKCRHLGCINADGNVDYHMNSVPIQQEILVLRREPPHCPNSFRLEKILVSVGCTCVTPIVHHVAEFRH

B1: MB454 (Fab, V domains shown)
VH: EVQLVESGGDLVQPGGSLRLSCAASGFTFSSYWMSWVRQAPGKGLEWVANIKQDGSEKYYVDSVKGRFTISRDNAKNSLYLQMNSLRAEDTAVYYCARDRGSLYYWGQGTLVTVSS
VL: AIQLTQSPSSLSASVGDRVTITCRPSQGILWALAWYQQKPGKAPKLLIYDASSLENGVPSRFSGSGSGTDFTLTISSLQPEDFATYYCQQFNSYPLTFGGGTKVEIK
notes: 32 stays A); heavy chain C-terminal Flag tag
B2: MB463 (Fab, V domains shown)
VH: B1 VH
VL: B1 VL with L30Y, W31F, A32E
notes: heavy chain C-terminal Flag tag
B3: MB438 (Fab, V domains shown)
VH: B1 VH
VL: B1 VL with L30P, W31Y
notes: as for B1
B4: MB440 (Fab, V domains shown)
VH: B1 VH
VL: B1 VL with A32Q
notes: as for B2
B5: MB461 (Fab, V domains shown)
VH: B1 VH
VL: B1 VL with L30Y, A32T
notes: as for B2
B6: MB491 (Fab, V domains shown)
VH: B1 VH
VL: B1 VL with L30F, W31F, A32W
notes: as for B2
B7: MB432 (Fab, V domains shown)
VH: B1 VH
VL: B1 VL with W31F
notes: as for B1
B8: MB453 (Fab, V domains shown)
VH: B1 VH
VL: B1 VL with L30V, W31F, A32W
notes: as for B2
B9: MB464 (Fab, V domains shown)
VH: B1 VH
VL: B1 VL with L30I, W31Y, A32Q
notes: 30 stays I); heavy chain C-terminal Flag tag
B10: MB434 (Fab, V domains shown)
VH: B1 VH
VL: B1 VL with L30W, A32Y
notes: as for B2
B11: MB456 (Fab, V domains shown)
VH: B1 VH
VL: B1 VL with A32H
notes: as for B2
B12: MB435 (Fab, V domains shown)
VH: B1 VH
VL: B1 VL with L30N, A32E
notes: as for B2
B13: MB448 (Fab, V domains shown)
VH: B1 VH
VL: B1 VL with L30V, A32M
notes: as for B2
B14: MB450 (Fab, V domains shown)
VH: B1 VH
VL: B1 VL with L30M, A32W
notes: as for B2
B15: MB457 (Fab, V domains shown)
VH: B1 VH
VL: B1 VL with L30I, A32S
notes: as for B9
B16: MB486 (Fab, V domains shown)
VH: B1 VH
VL: B1 VL with L30W, A32M
notes: as for B2
B17: MB444 (Fab, V domains shown)
VH: B1 VH
VL: B1 VL with A32E
notes: as for B2
B18: MB483 (Fab, V domains shown)
VH: B1 VH
VL: B1 VL with L30F, A32T
notes: as for B2
B19: MB458 (Fab, V domains shown)
VH: B1 VH
VL: B1 VL with L30W, W31Y, A32Q
notes: as for B2
B20: MB447 (Fab, V domains shown)
VH: B1 VH
VL: B1 VL with L30F, A32W
notes: as for B2
B21: MB433 (Fab, V domains shown)
VH: B1 VH
VL: B1 VL with L30Y, A32G
notes: as for B2
B22: MB468 (Fab, V domains shown)
VH: B1 VH
VL: B1 VL with L30Y, A32E
notes: heavy chain C-terminal Flag tag; with N56Q formatted to IgG as XAB3

What follows are binders tested against T1, human IL-17A (construct not stated) (assay: ELISA on coated huIL-17A, crude Fab extract).

Classic ELISA (normalized to XAB1 Fab) | Binder
2.9 ratio to XAB1 Fab | B1
2.7 ratio to XAB1 Fab | B2
2.7 ratio to XAB1 Fab | B3
2.8 ratio to XAB1 Fab | B4
2.9 ratio to XAB1 Fab | B5
2.1 ratio to XAB1 Fab | B6
2.3 ratio to XAB1 Fab | B7
2.7 ratio to XAB1 Fab | B8
2.7 ratio to XAB1 Fab | B9
2.4 ratio to XAB1 Fab | B10
2.4 ratio to XAB1 Fab | B11
2.7 ratio to XAB1 Fab | B12
2.9 ratio to XAB1 Fab | B13
2.9 ratio to XAB1 Fab | B14
2.7 ratio to XAB1 Fab | B15
1.9 ratio to XAB1 Fab | B16
3.2 ratio to XAB1 Fab | B17
3.1 ratio to XAB1 Fab | B18
2.7 ratio to XAB1 Fab | B19
3 ratio to XAB1 Fab | B20
2.3 ratio to XAB1 Fab | B21
2.8 ratio to XAB1 Fab | B22

The binders below were run against T1, human IL-17A (construct not stated) (assay: ELISA on coated huIL-17A, crude Fab extract, wash of at least 3 h).

Off-rate ELISA (normalized to XAB1 Fab) | Binder
34.2 ratio to XAB1 Fab | B1
34.2 ratio to XAB1 Fab | B2
41.5 ratio to XAB1 Fab | B3
52.5 ratio to XAB1 Fab | B4
49.8 ratio to XAB1 Fab | B5
43 ratio to XAB1 Fab | B6
44.2 ratio to XAB1 Fab | B7
43.3 ratio to XAB1 Fab | B8
34.9 ratio to XAB1 Fab | B9
44.4 ratio to XAB1 Fab | B10
45.1 ratio to XAB1 Fab | B11
44.7 ratio to XAB1 Fab | B12
40.4 ratio to XAB1 Fab | B13
41.5 ratio to XAB1 Fab | B14
34.7 ratio to XAB1 Fab | B15
58.5 ratio to XAB1 Fab | B16
48.9 ratio to XAB1 Fab | B17
47.1 ratio to XAB1 Fab | B18
33 ratio to XAB1 Fab | B19
45.5 ratio to XAB1 Fab | B20
39.7 ratio to XAB1 Fab | B21
43.9 ratio to XAB1 Fab | B22

What follows are binders tested against T1, human IL-17A (construct not stated) (assay: ELISA on coated huIL-17A, crude Fab extract, overnight with 200 nM XAB1 Fab as competitor).

Competition ELISA (normalized to XAB1 Fab) | Binder
36.6 ratio to XAB1 Fab | B1
31.6 ratio to XAB1 Fab | B2
41.1 ratio to XAB1 Fab | B3
54 ratio to XAB1 Fab | B4
62.8 ratio to XAB1 Fab | B5
44.2 ratio to XAB1 Fab | B6
37.3 ratio to XAB1 Fab | B7
46.4 ratio to XAB1 Fab | B8
36.9 ratio to XAB1 Fab | B9
39.5 ratio to XAB1 Fab | B10
46.7 ratio to XAB1 Fab | B11
44.6 ratio to XAB1 Fab | B12
51.5 ratio to XAB1 Fab | B13
53.3 ratio to XAB1 Fab | B14
41 ratio to XAB1 Fab | B15
64.9 ratio to XAB1 Fab | B16
52.4 ratio to XAB1 Fab | B17
45.2 ratio to XAB1 Fab | B18
42.1 ratio to XAB1 Fab | B19
57 ratio to XAB1 Fab | B20
29.3 ratio to XAB1 Fab | B21
60 ratio to XAB1 Fab | B22

The binders below were run against T1, human IL-17A (construct not stated) (assay: ELISA titration of purified Fab on plate-coated huIL-17A, normalized signal; x axis printed as log10 of Fab concentration (M)).

EC50 (read off the curve) [nM] | Binder
~3 | B2
~0.6 | B4
~2 | B9
~2 | B12
~2 | B17
~2 | B22
